Where a chain is given by its changes, count along the chain named.

The chains are these.
B1: 17E10-sy (antibody, V domains shown)
VH: EVQLEESGPGLVKPSQSLSLTCSVTGYSITSGFYWNWIRQFPGNKLEWMGYISFDGRHNYNPSLKNRFSITRDTSKNQFFLKLTSVTAEDTATYYCARDLITTVYYYPMDYWGQGTSVTVSS
VL: DIVMTQSHKFMSTSVGDRVSITCKASQDVGTAVDWYQQKTGQSPKLLIYWASTRHTGVPDRFTGSGSGTDFTLTISNVQSEDLADYFCQQYSNYPLTFGAGTKLELK
B2: 24B6-sy (antibody, V domains shown)
VH: EVQLQESGGDLVKPGGSLKLSCAASGFTFSSYGMSWVRQTPDKRLEWVATISSGGSFTYYPDSVKGRFTISRDNAKNTLYLQMSSLKSEDTAMYYCASLTSEGYAMEYWGQGTSVTVSS
VL: DIVLTQSPASLAVSLGQRATISCRASKSVSTSGYSHMHWYQQKLGQPPKLLIYLASNLESGVPARFSGSGSGTDFTLNIHPVEEEDAATYYCQHSRELPYTFGGGTKLEIK
B3: 17E3C10-sy (antibody, V domains shown)
VH: QVKLQESGPELRKPGETVYISCKASGYTFTNYGVNWVKQAPGKGLKWMGWINTYTGEPIYADDFKGRFAFSLETSANTAYLQISNLTNEDTATYFCARLYLYGNTYDYYAMDYWGQGTSVTVSS
VL: DIVLTQTPSSMYASLGERVTITCKASQDISTYLSWFQQKPGKSPKTLIYRANRLIDGVPSRFSGSGSGQDFSLTISSLEYEDMGVYYCLQYDDLNTFGGGTKLEIK
B4: 14F3-sy (antibody, V domains shown)
VH: QVQLQQSGAELVRPGTSVTVSCKASGYAFSNYLIEWVNQRPGQGLEWIGVINPGSGYTNYNENFKDKATLTADTSSSTAYMQLSSLTSDDSAVYFCARTYGKYGGAMDFWGQGTSVTVSS
VL: DIVMTQTPKFLLVSAGDRVTITCKASQSVSNDVAWYQQKPGQSPKLLIYYISNRYTGVPDRFTGSGYGTDFTFTINTVQAEDLAVYFCQQDYSSPPTFGGGTKLEIK
B5: chimeric antibody 19C9C10 (antibody, V domains shown)
VH: EVKLEESGAELVKTGASVKLSCTASGFNIKDTYMHWVKQRPEQGLEWIGRIDPANDNTKYDPKFQGRATVTADTSSNTAYLQLISLTSEDTAVYYCAGDYDGYAMDYWGQGTSVTVSS
VL: DIVMTQTTSSLSVSLGGKVTITCKASQDINKYVAWFQHKPGKGPRLLMHYTSTLEPGIPSRFSGSGSGRDYSFTISNLEPEDIATYYCLQYDNLLTFGGGTKLEIK
B6: chimeric antibody 11E8 (antibody, V domains shown)
VH: EVKLQESGPELVKTGASVKISCKASGYSFTGYFMNWVKQSHGKSLEWIGFINCYNGATSYNQKFKGKATFTVDASSSSAYMQFNSLTSEDSAVYYCARTISTGDSFDYWGQGSTLTVSS
VL: DIVMTQSTSYLSVSLGGRVTITCKASDHINNWLAWYQQKPGDAPSLLISGASRLETGVPSRFSGSGSGKDYTLSITSLQTEDVATYYCQQYWTTPFTFGSGTKLEIK
B7: chimeric antibody 24B6 (antibody, V domains shown)
VH: B2 VH
VL: B2 VL
B8: chimeric antibody 3B3 (antibody, V domains shown)
VH: EVQLEESGADLVRPGTSVKVSCKASGYAFTNYLIDWLKQRPGQGLEWIGVINPGSGITNYNEKFKGKATLTTDTSSSTAYMQLTNLTSDDSAVYFCARGDGTYYEDFLDYWGQGTSVTVSS
VL: DIVLTQTTSSIYTSLGERVTITCKASQDINSYLSWFQQRPGRSPKTLIYRANRLMDGVPSRFSGSGSGRDFSLTISSLDYEDMGIYYCLQYDEFPLTFGAGTKLELK
B9: chimeric antibody 29E10C4 (antibody, V domains shown)
VH: QVKLEESGAELVRPGTSVKVSCKASGYAFTDYFIEWIKQRPGQGLEWIGVINPGNDVTNYNEKFKGKATLTVDKSSTTAYMQLSSLTSDDSAVYFCTRSAGNYENSMDFWGQGTSVTVSS
VL: DIVLTQSPKFLLVSAGDRVTITCKASQSVSNDVGWYQQKPGQSPKLLIYYTSNRYTGVPDRFTGSGYGTDFTFTISSVQAEDLAVYFCQQDYHFPLTFGAGTKLELK
B10: chimeric antibody 17E3C10 (antibody, V domains shown)
VH: B3 VH
VL: B3 VL
B11: chimeric antibody 14F3 (antibody, V domains shown)
VH: B4 VH
VL: B4 VL
B12: chimeric antibody 17E10 (antibody, V domains shown)
VH: B1 VH
VL: B1 VL
B13: Osocimab (antibody, V domains shown)
VH: EVQLLESGGGLVQPGGSLRLSCAASGFTFSQYGMDWVRQAPGKGLEWVSGIGPSGGSTVYADSVKGRFTISRDNSKNTLYLQMNSLRAEDTAVYYCTRGGPYYYYGMDVWGQGTTVTVSS
VL: DIQMTQSPSSLSASVGDRVTITCQASQDISNYLNWYQQKPGKAPKLLIYDASNLETGVPSRFSGSGSGTDFTFTISSLQPEDIATYYCQQADSFPVTFGGGTKVEIK
B14: humanized antibody 14F3-Z1 (antibody, human IgG1, kappa, V domains shown)
VH: QVQLVQSGAEVKKPGASVKVSCKASGYAFSNYLIEWVGQAPGQGLEWMGVINPGSGYTNYNENFKDRVTMTAHTSISTAYMELSRLRSDDTAVYFCARTYGKYGGAMDFWGQGTLVTVSS
VL: DIQMTQSPSSLSASVGDRVTITCKASQSVSNDVAWYQQKPGKAPKLLIYYISNRYTGVPSRFSGSGSGTDFTFTISSLQPEDIATYFCQQDYSSPPTFGQGTKLEIKR
B15: humanized antibody 14F3-Z4 (antibody, human IgG1, kappa, V domains shown)
VH: B14 VH with A16S, G38R, M70I, H73D, T74E, I76T, R85S, D89E, L115T
VL: B14 VL with S10F, F73L, I83F
B16: humanized antibody 14F3-4 (antibody, human IgG1, kappa, V domains shown)
VH: B14 VH with A28T, S30T, G38R, M48I, V68A, M70L, H73D, L115T
VL: DIVMTQSPDSLAVSLGERATINCKASQSVSNDVAWYQQKPGQPPKLLIYYISNRYTGVPDRFSGSGSGTDFTLTISSLQAEDVAVYFCQQDYSSPPTFGGGTKLEIKR
B17: humanized antibody 14F3-Z3 (antibody, human IgG1, kappa, V domains shown)
VH: B14 VH with A16S, G38R, M70I, H73D, T74E, I76T, R85S, D89E, F95Y, L115T
VL: B14 VL with S10F, F73L, I83F, F87Y
B18: humanized antibody 14F3-1 (antibody, human IgG1, kappa, V domains shown)
VH: B14 VH with A28T, S30T, G38R, A72R, H73D, F95Y, L115T
VL: B16 VL with F87Y
notes: To be verified
B19: humanized antibody 14F3-2 (antibody, human IgG1, kappa, V domains shown)
VH: B14 VH with A28T, S30T, G38R, A72R, H73D, F95Y, L115T
VL: B16 VL
B20: humanized antibody 14F3-3 (antibody, human IgG1, kappa, V domains shown)
VH: B14 VH with A28T, S30T, G38R, M48I, V68A, M70L, H73D, L115T
VL: B16 VL with F87Y
B21: humanized antibody 14F3-Z2 (antibody, human IgG1, kappa, V domains shown)
VH: B14 VH with A72R
VL: B14 VL with F87Y

In the first assay the target is T1, human FXIa factor (human, UniProt P03951 19-625). Put plainly: cell-based or functional assay.
B1: the “OD405nm, S2366 activity assay, antibody at 20µg/mL” value (from here on “OD405nm, S2366 activity assay”) is 0.189 OD405nm.
For B2, the “OD405nm, S2366 activity assay” value turned out to be 0.268 OD405nm.
In the case of B3, the “OD405nm, S2366 activity assay” value amounted to 0.414 OD405nm.
As to B4, the “OD405nm, S2366 activity assay” value is 0.211 OD405nm.

For a further assay, the target named is T1, human FXIa factor. Put plainly: cell-based or functional assay. The source holds these as a separate data set.
B5: the “IC50(nM) from S2366 assay (Second Batch)” value amounted to 38.5 nM.
For the molecule B6, the “IC50(nM) from S2366 assay (Third Batch)” value was determined as 93.1 nM.
Regarding B7, the “IC50(nM) from S2366 assay (First Batch)” value was found to be 122 nM.
On to B8, for which the “IC50(nM) from S2366 assay (Fourth Batch)” value was determined as 42.4 nM.
As to B9, the “IC50(nM) from S2366 assay (Second Batch)” value came out at 34.9 nM.
For the molecule B10, the “IC50(nM) from S2366 assay (Second Batch)” value stood at 44.4 nM.
Consider B11, for which the “IC50(nM) from S2366 assay (First Batch)” value was 78.7 nM.

A further assay addresses T1, human FXIa factor. Description: cell-based or functional assay. This is another data set of the same source.
For the molecule B12, the “FXIa Kit Activity Assay (nM), IC50 (First Batch)” value worked out at 11.6 nM.
Turning to B5, the “FXIa Kit Activity Assay (nM), IC50 (Second Batch)” value worked out at 1.31 nM.
As for B6, the “FXIa Kit Activity Assay (nM), IC50 (Third Batch)” value turned out to be 7.8 nM.
On to B7, for which the “FXIa Kit Activity Assay (nM), IC50 (First Batch)” value worked out at 6.7 nM.
Regarding B9, the “FXIa Kit Activity Assay (nM), IC50 (Second Batch)” value is 0.219 nM.
On the same count and under the same terms, the result for B10 reads 0.781 nM.
Take B11: the “FXIa Kit Activity Assay (nM), IC50 (First Batch)” value turned out to be 7.77 nM.

A further assay addresses T1, human FXIa factor. Put plainly: cell-based or functional assay. This is another data set of the same source.
With B13, the “IC50 (nM) from S2366 Assay” value turned out to be 226 nM.
Consider B14, for which the “IC50 (nM) from S2366 Assay” value was 54.1 nM.
On to B15, for which the “IC50 (nM) from S2366 Assay” value amounted to 55.8 nM.
On to B16, for which the “IC50 (nM) from S2366 Assay” value was determined as 64.7 nM.
Take B17: the “IC50 (nM) from S2366 Assay” value came to 56.3 nM.
Turning to B18, the “IC50 (nM) from S2366 Assay” value stood at 45.4 nM.
Regarding B19, the “IC50 (nM) from S2366 Assay” value is 43 nM.
Regarding B20, the “IC50 (nM) from S2366 Assay” value was found to be 52.7 nM.
Regarding B21, the “IC50 (nM) from S2366 Assay” value turned out to be 57.3 nM.

A further assay has as its target T1, human FXIa factor. Put plainly: cell-based or functional assay. The source holds these as a separate data set.
B13: the “FXIa kit Activity Assay (nM), IC50” value was determined as 32.5 nM.
Take B14: the “FXIa kit Activity Assay (nM), IC50” value is 8.53 nM.
On to B15, for which the “FXIa kit Activity Assay (nM), IC50” value worked out at 13.6 nM.
On to B16, for which the “FXIa kit Activity Assay (nM), IC50” value amounted to 15.7 nM.
As for B17, the “FXIa kit Activity Assay (nM), IC50” value was 13.5 nM.
Take B18: the “FXIa kit Activity Assay (nM), IC50” value was 7.5 nM.
For the molecule B19, the “FXIa kit Activity Assay (nM), IC50” value worked out at 9.69 nM.
In the case of B20, the “FXIa kit Activity Assay (nM), IC50” value turned out to be 10.7 nM.
Take B21: the “FXIa kit Activity Assay (nM), IC50” value was 8.79 nM.

The target in the next assay is T1, human FXIa factor. Description: Biacore 8K (SPR), human FXIa in 2-fold dilution series.
In general, Kd refers to the free concentration of one partner at which half of the binding sites on the other are occupied at equilibrium, for simple one-to-one binding. As usually defined, the koff is the rate constant with which the complex falls apart. Low values mean a long-lived complex, high ones a short-lived complex. As usually defined, the kon is the rate constant with which the complex forms. A higher kon goes with faster complex formation. Regarding B13, the Kd came out at 6.37 nM, the koff turned out to be 0.00411 s⁻¹ and the kon was 645000 M⁻¹ s⁻¹.
Consider B18, for which the Kd came out at 0.000809 nM, the koff amounted to 1.05e-05 s⁻¹ and the kon is 1.3e+07 M⁻¹ s⁻¹.

The values are drawn from EP4644426A1 (Gan & Lee Pharmaceuticals Co., Ltd., dated 2025).
